The text below walks through data of the DeepSol protein solubility set.

The data set can be described thus: soluble on expression in E. coli; label from the status in PepcDB or PDB records.
For the sequence “MTDTRKFKATDLFSFNNINLDPLTETFNISFYLSYLNKWPSLCVVQESDLSDPTLMGYIMGKSEGTGKEWHTHVTAITVAPNSRRLGLARTMMDYLETVGNSENAFFVDLFVRASNALAIDFYKGLGYSVYRRVIGYYSNPHGKDEDSFDMRKPLSRDVNRESIRENGENFKCSPADVSF”, the “soluble on expression in E. coli” value was “soluble”.
In the case of “MTDVEQPVSVEDQQAQAQSYYDQVLGNAYVQTAINAYTKTKEFHPLLNSTLNSAEEKVSTVGNYAAQKAYDGYNSYYVKPKNTAYEAVSYGTERAKTAVESGKQAAIVGGTFGIGAAVVLTQFSLALSAGGAALVLEQVDSAKKLGSSAISTIKEAELAVEHRIFSALHQAQRIAMVPVEKITENTNSLLDILDGAVQKGLNIEVPPSVNLTIGQRVKNLASLIVQGVSNKAHDHVIDPINERARNYLEQLSQSFVLLDIVREKKTWVIEKSNELSTSVFDFKKTLEEEAQKYKVAPEEMLMKHIQSTSEQLSTQLQSLREKGQNVFGDGTKIDSTIDYLENLKKNFTDAEDVYKVRDEVLNEGRQRIAELSTWTTSLLIISAEWQFEPEDLLIEELYFDAPPPVRTRNLYRNRA”, the “soluble on expression in E. coli” value is recorded as “not soluble”.
As for “MTEAGASIVVTVKNEGKNLRELLESIEKNDFTNFETVVVDDLSTDDTEDIVKSYRFTVYKRIACSRGEGRNIGVDLSRYGYILFTDGDAKVSEHWISGMVSALAAGNDAVIGNTLYTGKRRYMQERVKIFLEGIEVTAPSVNLAYRKDRFRQLGGFDPKFVTAEDIDLNIRAVKAGFRFATCDSCVVYAKVRENLASFLRQAYWNGYGRYQLEMKHPGITRNTRVRLGHNFFDFLHMVSGAAGYLSARISEGKQGRLEHHHHHH”, the “soluble on expression in E. coli” value is given as “soluble”.
As for “MTEALEQPLRRILSYWRNEIKPLLDAETGTLFKQAPIRVTLAFPNRYSVGMASLGYQVIYRMFNQEEGVACERAFLPDDVDAFERTGQALPTVESGRAAGDCELFSISVSFELDLTNIIRLIDVAGMNPLREERDETDPVVMIGGPLTSSNPYPLTPFADIIIIGDGEQIVPVVSEALRESSSREDFYDLIDGVPGVFLPARHVHEPTWATAPKELLPAYSQIVTPHSELSNMFLVEAQRGCPRPCTFCLARTMYGPNRNNQAQELLDVIPDWVEKVGLVGAALSDFPHTKFVGKTLTERGVKLGVSSIRADTVDAELAEILKAGGLRTFTVASDAPSERLRRWLKKGITTEDLLKTAQISRDLGFSGLKVYMMIGLGPENDDDITELISFTKELAGINRIALGISPFVPKRHTPHFADPFAGVQTIEKRLKRIQKELRTTAELRNVSAKWAWVESVIARGGPEVGMAAYQIYRNESIGAWKKALDEVGWQDDFEANTPSIGLPPGQYESKEVSAHAQGLAVLEHHHHHH”, the entry is “soluble”; as for “MTECIFCHQLKANQLLTQSQYFKVVFDIDPIQKGHLLLISKDHYTSLTQLPKEGHYDLIDLQAALVAKLEQHLPISGVTSVSNDKELMDEGTHFHLHLIPRLTNDSFWEGITINQENWDLTPFLKHL”, “not soluble”; as for “MTEEIAGFQTSPKAQVQAAFEEIARRSMHALSFLHPSMPVYVSDFTLFEGQWTGCVITPWMLSAVIFPGPDQLWPLRKVSEKIGLQLPYGTMTFTVGELDGVSQYLSCSLMSPLSHSMSIEEGQRLTDDCARMILSLPVTNPDVPHAGRRALLFGRRSGENA”, “not soluble”.
Under “MTEHNHDSQLEINNEEELLTLFDEEGNEVLYRKVLEFYHPEFKKEYVILAEEGAQSDEDDMIELVPMINEPDESGDGGKLVPIETDEEWDMIEEVVNTEMEELEHHHHHH” stands “not soluble”; under “MTEKINIQEVLVVEGKDDTANLRRFYEVDTYETRGSAITEEDLERINRLNDLRGVIVLTDPDYNGERIRKLIMAAVPTARHAFLNRNEAVPSSKSKGRSLGVEHANFEDLQKALAHVTQQYDDESYFDIRQTDLIRLGLLMASDSRKRREYLGEKLRIGYANGKQLLKRLELFGITLAEVEEVMETYEE”, “not soluble”; under “MTELARLKFYATQPHSCSYLPEEQATTLFLDPSQPMDVHVYADLSEMGFRRSGDHLYRPHCQNCNACVPARIPAARFIPNRQQRRILKRNADLTVTAARPAFKEEYFELYRRYIETRHADGDMYPPSRDQFSTFLVRDLPFCWFYEFRLEGRLMAVAVCDLLPNGLSAVYTFYEPDEERRSLGRFAILWQITEALRQNLEAVYLGYWIKNCKKMNYKTQYRPIELLINQRWVTLNLEHHHHHH”, “not soluble”.
As for “MTEMIRPRVKYVIGPDGSPLTIADLPPANTRRWVIRRKAEVVAAVRGGLLSLEEACERYTLTVEEFLSWQSSISDHGLAGLRTTRIQQYRHAAALEHHHHHH”, the “soluble on expression in E. coli” value was “soluble”.
As for “MTENVNSSGDSAIKSEDKEEVTVIQEGQAKVGFHGPVFYNPVQEFNRDLTVTVLRQFSADHQKWAEEQKQLKTEEEPPKKKNKLAINEDGKIRILDALSASGLRALRFSKEVPNVGFIMANDFSDNAVASIQENVKLNGVEDIVEAHFGDAVMTMMEHRGIDKRFHAVDLDPYGTASTFLDSAVQCVADRGILMVTCTDMAVLCGNTPEACYNKYDAVTTRMKCCHEVGLRILLRAIDSAANRYTRYIEPLVSISVDFYVRVFVRVHTGAFQAKQSGTKVGTVLVCSGCHSMEPLVLLKRGEGNQQSKYSIPTVRHSISGPGNRCIHCLLPLHQIGPIYLAPIHSKPFVTSLLERLKSTPEAERLGTHGRLQGVLTMVNEELDDVLYYEHNQMANVVKVSVPKSQSVRSAILNAGFKVSGSHCNPRAIKTNAPMHLLWDIYRQVAKDTSVDREKRLAKESAGYHILGQPITNTVNFTLHPGAIEQAKKENLVRFQCNKGKNWGPRQKAKGSVNSTKAGFQLTEHKE”, the entry is “not soluble”; as for “MTEPKPRARRSGAAPARTRDDQVVDRRRSLLKAAVKVISKRGLTGVTINSIAAEAKCSYGVVAFHFQSKEGIIFAALDHTAAEYEAYLAQLNASQRGPAERIRHMIDTDFSRKAAGHESIALWLAFWAEAARVPSFRQRCAALRVQYNEAVAADVAELAALRGRTVEAEQVALTLNAMISGLWVENLLLPITIAEGQKRGHDASLAYLRLIFPDDF”, “not soluble”; as for “MTEPLTETPELSAKYAWFFDLDGTLAEIKPHPDQVVVPDNILQGLQLLATASDGALALISGRSMVELDALAKPYRFPLAGVHGAERRDINGKTHIVHLPDAIARDISVQLHTVIAQYPGAELEAKGMAFALHYRQAPQHEDALMTLAQRITQIWPQMALQQGKCVVEIKPRGTSKGEAIAAFMQEAPFIGRTPVFLGDDLTDESGFAVVNRLGGMSVKIGTGATQASWRLAGVPDVWSWLEMITTALQQKRENNRSDDYESFSRSILEHHHHHH”, “not soluble”.
In the case of “MTEPSTSGAQDHDDYLVTLSSPQRQCTIRVVQPASALKRKLPTSSVPEFNPDSYGESIPENAPRPVCETCSVAWSTWAAYEFHMLQTHIIYRPFRCSGCRNLNFHTEDEGKHHLEHFHGGKPGSFQLIKQTDFAKENQLIECLENAKTTEQLGISKERLENGLKMIEKLQKIKFKAVKVHLPCCLRHEMISKHTETEKEAPPQEKSVTNAQKPGNPALLSLESRNYDYEQQDTVGI”, the “soluble on expression in E. coli” value is on record as “not soluble”.
As for “MTESIDGNPWRILELVAENEYHLEQDNNVDQLEQFSVIPGFQEELVEFAKKKLLDSIEVQQFLVERDIEFQEKNIASLIDELSDNQDDESNSKEIHLELKSSKNKYEGLRKKIASFKGRQQKAVGFLNSGLEEIRILTSPNDKFCYKVKNASWRCSVDNSIDLQKIKLICEKLIGLEKKMEVTFWTSEIMKLLENLDQRHYAVAFGIIIGMATWEYENSEKYHLLALIHLSIGRDETKTDVLLYWENWENESIEQSIVSLRILMIFYMKISIDDLECRENFEFRICQVIVFILEHKEFESSHLTMITELLGSIEQRFGNFTEMCDIMFTHFEAKAQMFDSYEAKMLVFMRNEHLSLLQTQHIDQCMDTLNILILLYLKIKIDKWTYREIIEQRISQFIICILEHTEFQSIHLTLIIQHLESIEQQFGCFSGKFDNMFKIFELKLQILDRPEQERVSKWIKSLSLRSSISEFSSEHSHSTVTVIEHSEKTYELEQNVRIDLEETLKLEKRIEEVSIEESKKKQEKLELKQREEEEARIKEEEEKQRKILEEEARKKQEEEEARLKAEEELKIYEEEKRKKELEEERKKKEELEIKRKAEEEKKKKALEEEKKRKIAEEKARQKQEKERKKQANKCTFLQNFTFIRHQHPSQTYNERVLDGKVVGLYFSAHWCPPSRDFTPVLAQFYSQVEDNFEILFVSSDNNTQEMNFYLQNFHGDWFHLPLNLCNSMKHRNTKNHIPALIIMKPDGTVITDDGRNLVSQWINDPKALVNHWKAMLN”, the entry is “not soluble”.
